From patent publication US20180134756A1 (NATIONAL INSTITUTE OF ADVANCED INDUSTRIAL SCIENCE AND …, published 2018)

Molecular target: T1, Aleuria Aurantia Lectin (AAL) (Aleuria aurantia, UniProt P18891 2-313)
T1 construct: Used as the probe in lectin blotting
T1 sequence (looked up): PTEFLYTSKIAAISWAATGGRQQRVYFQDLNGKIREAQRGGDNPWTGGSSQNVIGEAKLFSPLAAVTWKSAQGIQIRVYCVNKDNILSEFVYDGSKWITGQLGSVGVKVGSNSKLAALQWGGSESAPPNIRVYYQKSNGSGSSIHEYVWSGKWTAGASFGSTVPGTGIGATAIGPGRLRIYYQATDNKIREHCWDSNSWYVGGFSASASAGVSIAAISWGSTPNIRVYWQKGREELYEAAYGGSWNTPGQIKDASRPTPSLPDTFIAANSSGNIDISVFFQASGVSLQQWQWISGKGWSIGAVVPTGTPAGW
Experiment: lectin blotting
Experimental: It was reported that the natural WFA (nWFA) has a sugar chain including fucose, and thus, the lectin blotting was performed using Aleuria Aurantia Lectin (AAL) recognizing fucose. As a result, it was confirmed that the nWFA was a glycoprotein including a sugar chain that reacted to AAL (FIGS. 5A and 5B).

- binding result: binds
B1: natural Wisteria floribunda lectin (nWFA), purified, purchased from Vector Lab (other)
chain: KETTSFVFTRFSPDPQNLLLQGDTVVTSSGHLQLTQVKDGEPVYSSLGRALYYAPIHIWDSNTDTVANFVTSFSFVIDAPNKAKAADGLAFFLAPVDTEPQKPGGLLGLFHDDRHNKSNHIVAVEFDTFKNSWDPEGTHIGINVNSIVSRKTTSWDLENGEVANVVISYQASTKTLTASLVYPSSSTSYILNDVVDLKQILPEYVRVGFTAASGLSKDHVETHDVLAWTFDSDLPDPSSDDCN
modifications: one N-glycan (fucose-containing) expected at Asn146; disulfide bond between the two Cys272
notes: Lectin purified from seeds; Disulfide-linked dimer of about 60 KDa; also called natural WFA; nature-derived WFA
